Data: the supplement of paper PMC9170038

Key:
MS2 coat protein [1] = experiment: apparent KD of MS2 coat protein, switch OFF state (with FMN for OFF switches, without FMN for ON switches); designed switch direction (-1 OFF switch, 1 ON switch): -1; higher = weaker reporter binding; settings: FMN input: 0 or 200 uM; Eterna round: R93 (includes R88 designs)
Method in brief: (§1)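 On-chip transcription from Illumina sequencing clusters produced the designed RNA switches. These were titrated with SNAP-549-labelled MS2 coat protein (twofold steps, 0.7 or 1.5 nM to 3 µM) in 100 mM Tris-HCl pH 7.5, 80 mM KCl, 4 mM MgCl2, with or without constant ligand. The apparent KD given is the per-design median of normalised cluster binding-curve fits.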

MS2 coat protein [2] = experiment: apparent KD of MS2 coat protein, switch ON state; designed switch direction (-1 OFF switch, 1 ON switch): -1; higher = weaker reporter binding; settings: FMN input: 0 or 200 uM; Eterna round: R93 (includes R88 designs)
Method in brief: as §1

| Sequence | apparent KD of MS2 coat protein (MS2 coat protein [1]) | apparent KD of MS2 coat protein (MS2 coat protein [2]) |
| --- | --- | --- |
| AUAAAACAUGAGGAUCACCCAUGUGAGGAUAUCUGAAAAAAAAAAAGAAAAAAAAAAAAGAGAAGGCACAAUAA [Amethyst 44] | 0.0794 µM | 0.0651 µM |
| AUAAAACAUGAGGAUCACCCAUGUGAGGAUAUGCGAAAUAAAGAAAUAAAUAAAUAAAGCAGAAGGCACAAUAA [Ex 1 Tesla 1] | 0.0219 µM | 0.0346 µM |
| AUAAAGUGAGGAUAUGCUAAGAAGUAAAUAGACAAAUAAAUGCAGAAGGCACAUGAGGAUCACCCAUGUAAGAA [Ex 4 Tesla 4] | 0.0262 µM | 0.0359 µM |
| AUCUACCUAGGAUAUACAUGAGGAUCACCCAUGUACAGUUUCAACUAGGGAAACUCACGUAGAAGGAGGUAGAU [JR_Exc003_Sub1209] | 0.0252 µM | 0.0482 µM |
| AUGGUACAUGAGGAUCACCCAUGUCAGGAUAUCGGCUAAAACGUAAAAAAAAUAAAAGCGAGAAGGGACUGCUC [EX1 Malc#18 Mod 8 - Jieux - Exclusion 1] | 0.0283 µM | 0.024 µM |
| CAAAAGGAAGGAUAUACAUAAUAAAACGGGCGGGCACCUUAACAUGAGGAUCACCCAUGUAGAAGGUCCAAUAC [Onesmabe] | 0.0186 µM | 0.0157 µM |
| CAGAGACAUGAGGAUCACCCAUGUUAGGAUAUGCGUGUAUGCUAAAAAAAGUUAACAAGCAGAAGGAACAGAGG [JR_Exc001_Sub309] | 0.0642 µM | 0.0243 µM |
| CAGGUAUGAGGAUAUACAUAGAUACAGACACAUGUUCAAGUACAUGAGGAUCACCCAUGUAGAAGGCAUAUAUG [Mat - Same state - Mayanna Mod - D106] | 0.0351 µM | 0.0223 µM |
| CCGAGGCGAGGAUAUAUGAAGGACACAACAUUUAGGGUAAGACAUGAGGAUCACCCAUGUAGAAGGCGCGACGC [Ex2_Neo] | 0.0387 µM | 0.0745 µM |
| CCUAAGAAAGGAUAUACACCGGUGAACCGCUGAAAUCAGCAACAUGAGGAUCACCCAUGUAGAAGGUUUAUGGG [Erusqu] | 0.133 µM | 0.237 µM |
| CCUACGUGAGGAUAUGCGGAUAACACGUUAGACAAAUAGACGCAGAAGGCACAUGAGGAUCACCCAUGUGAACC [JR_Exc004_Sub317] | 0.0176 µM | 0.0219 µM |
| CCUCGACAUGAGGAUCACCCAUGUUAGGAUAUAUACAAACCCGAAAACCAAGGGCAAAAUAGAAGGAACGUGCA [Masoedma] | 0.0192 µM | 0.0148 µM |
| CUCAAGUUAGGAUAUACAAGAAAAGAAGAGAAAGAAAAGAAGUAGAAGGAACAUGAGGAUCACCCAUGUAAGAA [EteRNA is fun!] | 0.0257 µM | 0.0332 µM |
| CUCAUGUAAGGAUAUGACUACAUAAAAAAAAAAAAAUGUAGUCAGAAGGUACAUGAGGAUCACCCAUGUACAAA [Brourd - Exclusion 4 - Sub 3] | 0.0252 µM | 0.059 µM |
| CUCAUGUCAGGAUAUGUAGCAUGAUACGAAAGUAUCAUGCUACAGAAGGGACAUGAGGAUCACCCAUGUCAAAA [Ex4: 943] | 0.0175 µM | 0.0221 µM |
| CUCAUGUCAGGAUAUGUCAAAAGUCACAAAAGUGACAAAAGACAGAAGGGACAUGAGGAUCACCCAUGUAAAAA [Starry Exclusion 4.6 (starryjess round 1 mod)] | 0.0155 µM | 0.0206 µM |
| CUCAUGUUAGGAUAUAAAUGAAAUGAAGUGAAAGAAAAGAAUUAGAAGGAACAUGAGGAUCACCCAUGUUAGAA [EteRNA is fun!] | 0.0376 µM | 0.0478 µM |

| Sequence | apparent KD of MS2 coat protein (MS2 coat protein [1]) | apparent KD of MS2 coat protein (MS2 coat protein [2]) |
| --- | --- | --- |
| CUCUUGUCAGGAUAUCAAAGAAAAGAAGAGAAAGAAAAGAAUGAGAAGGGACAUGAGGAUCACCCAUGUAAGAA [EteRNA is fun!] | 0.0517 µM | 0.0481 µM |
| GAAAAACAUGAGGAUCACCCAUGUAAGGAUAUGCGAAAAUAAAAUAAAAUAAAAUAAAGCAGAAGGUACAAAAG [Mat - Exclusion 1 - Eli mod - D2] | 0.0584 µM | 0.0347 µM |
| GAAAAACAUGAGGAUCACCCAUGUUAGGAUAUGCUAUGGAAAAAUAAAAUAAAACAUAGCAGAAGGGACAAAAG [Mat - Exclusion 1 - Eli mod - D29] | 0.0885 µM | 0.0247 µM |
| GAAAAAGGAGGAUAUACGAACAUGUCAAAAGACGUGAAGGGACAUGAGGAUCACCCAUGUAGAAGGCUUAAAAG [Mat - Exclusion 2 - JL mod - D94] | 0.0157 µM | 0.0374 µM |
| GAAAACCUAGGAUAUACAUGAGGAUCACCCAUGUCAGUAGACUGGGAAAGGUCUCUCAGUAGAAGGAGGACCCG [Zaered] | 0.437 µM | 0.509 µM |
| GAAAAGUCAGGAUAUACAGAAAAAAAAACGAAAAAAAAUCUGUAGAAGGGACAUGAGGAUCACCCAUGUUAAAG [Mat - Exclusion 4 - Mayanna - D126] | 0.0236 µM | 0.038 µM |
| GAAAAGUCAGGAUAUAUAGGAAAAAUAAAAAAAAUAAAACUAUAGAAGGGACAUGAGGAUCACCCAUGUUAAAA [Mat - Exclusion 4 - Mayanna - D131] | 0.0247 µM | 0.0439 µM |
| GAAAAGUGAGGAUAUACAUGAGGAUCACCCAUGUGUAUAAAAAAUUACACAAAAGAAAGUAGAAGGCACUAAAA [Mat - Exclusion 3 - Mayanna mod - D114] | 0.0281 µM | 0.0178 µM |
| GACGAGUGAGGAUAUGUAAAAAAAAGAGAAGAGAAGAGAGAACAGAAGGCACAUGAGGAUCACCCAUGUAGGGA [Default title] | 0.071 µM | 0.114 µM |
| GAGAAGUUAGGAUAUGCGGAGGGAAGGAAGGAAAGGGAAGGGCAGAAGGAACAUGAGGAUCACCCAUGUAAGAG [salish99-ex4-02] | 0.0253 µM | 0.0359 µM |
| GAGAGCCGAGGAUAUACAUGAGGAUCACCCAUGUAAAAAAAAAAAAAAAAAAAAUCAUGUAGAAGGCGGCUUUC [hsl_exclusion3] | 0.0289 µM | 0.234 µM |
| GCUUGUCAAGGAUAUACAUGAGGAUCACCCAUGUGAGAGAAAAAAGUGAGAAAGAAAAGUAGAAGGUGGUGAGG [salish99-ex3-78] | 0.0466 µM | 0.0333 µM |
| GCUUUGCAAGGAUAUACAUGAGGAUCACCCAUGUGAGAGAAAAAAGUGAGAAAGAAAAGUAGAAGGUGCGGAGG [salish99-ex3-120] | 0.044 µM | 0.0342 µM |
| GGAUGUCAAGGAUAUACAUGAGGAUCACCCAUGUGAGAGAAAAAAGUGAGAAAGAAAAGUAGAAGGUGGUGUCG [salish99-ex3-87] | 0.0561 µM | 0.0385 µM |
| GGGCCACAUGAGGAUCACCCAUGUAAGGAUAUGCUAGGGAUGGAAACCAUUACGCAAAGCAGAAGGUACUAAAG [Janelle Amethyst 18 Mod 10 - Jieux - Exclusion 1] | 0.0282 µM | 0.0267 µM |
| GGUUGGCGAGGAUAUACAUGAGGAUCACCCAUGUGAGAGAAAAAAGUGAGAAAGAACAGUAGAAGGCGCUGACG [salish99-ex3-29] | 0.0728 µM | 0.0234 µM |
| GUGUACAGAGGAUAUACUAAAGCAUGGAAACAUGCAAGAUCACAUGAGGAUCACCCAUGUAGAAGGCUGUACAC [Ex2: 741] | 0.529 µM | 0.0623 µM |
